Publication PMC3474823

Molecular target: HA-LIMK2 (pcDNA3-(HA)2-LIMK2) (UniProt P53671)
Sequence of UniProt P53671 (P53671 whole entry): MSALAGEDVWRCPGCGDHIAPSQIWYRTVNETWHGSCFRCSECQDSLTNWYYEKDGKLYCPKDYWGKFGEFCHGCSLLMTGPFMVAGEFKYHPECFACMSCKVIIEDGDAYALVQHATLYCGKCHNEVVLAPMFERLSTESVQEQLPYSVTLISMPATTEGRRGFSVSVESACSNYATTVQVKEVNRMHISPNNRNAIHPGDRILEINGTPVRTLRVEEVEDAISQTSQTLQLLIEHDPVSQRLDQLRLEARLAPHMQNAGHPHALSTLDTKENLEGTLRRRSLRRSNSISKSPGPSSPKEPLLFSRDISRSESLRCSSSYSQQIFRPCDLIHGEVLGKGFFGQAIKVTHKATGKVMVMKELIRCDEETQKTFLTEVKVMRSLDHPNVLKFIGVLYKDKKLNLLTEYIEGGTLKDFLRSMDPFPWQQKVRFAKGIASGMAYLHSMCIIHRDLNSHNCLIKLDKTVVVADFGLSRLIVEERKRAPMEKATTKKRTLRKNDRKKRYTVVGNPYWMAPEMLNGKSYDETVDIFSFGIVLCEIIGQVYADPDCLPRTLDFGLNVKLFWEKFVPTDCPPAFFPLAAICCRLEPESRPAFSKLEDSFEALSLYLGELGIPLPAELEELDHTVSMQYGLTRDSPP

Substance: flag-SecPH (p3XFlag-SecPH) (domain or fragment)
- kinase activity of anti-HA-LIMK2 immunoprecipitate on GST-cofilin (32P, P-cofilin), cells cotransfected with SecPH against the control Galectin-3: 20%
